T1: MT1-160p (human)
T1 construct: peptide of MT1-MMP (MMP14) that holds the MT-Loop (Tyr164-Gln174); source: synthetic peptide, bought: GL Biochem Ltd. (Shanghai)
T1 peptide: REVPYAYIREGHEKQ

B1: MT1-AF7p (peptide)
peptide: HWKHLHNTKTFL
notes: In the AFM experiments coupled covalently to the tip through an NHS-PEG18-aldehyde linker; In the in vivo imaging Cy5.5 was conjugated to the N-terminus; also called original peptide; original ligand; source: synthetic peptide (solid-phase, Fmoc chemistry, HPLC purified)
B2: MT1-AF7p-H4K (peptide)
peptide: HWKKLHNTKTFL
notes: MT1-AF7p with histidine 4 changed to lysine (rational design by docking); In the AFM experiments coupled covalently to the tip through an NHS-PEG18-aldehyde linker; also called optimized peptide; peptidomimetic; source: synthetic peptide, bought: GL Biochem Ltd. (Shanghai)
B3: MT1-AF7p-H4R (peptide)
peptide: HWKRLHNTKTFL
notes: MT1-AF7p with histidine 4 changed to arginine (rational design by docking); In the AFM experiments coupled covalently to the tip through an NHS-PEG18-aldehyde linker; also called optimized peptide; peptidomimetic; source: synthetic peptide, bought: GL Biochem Ltd. (Shanghai)

Legend:
Details in all cases: both partners purified
[1] = biological target: T2, recombinant human MT1-MMP catalytic domain (human, UniProt P50281 114-287); assay: ITC; MicroCal ITC-200, 25 °C, 10 mM HEPES, 150 mM NaCl, pH 7.4; results and legend: peptides injected into MT1-MMP; methods: MT1-160p (1 mM) in the syringe into binding peptides (0.1 mM) in the cell; one-site binding model
T2 construct: MT1-MMP (MMP14), human, catalytic domain (20 kDa); PDB 1BQQ chain M is the catalytic domain structure used for the docking, not necessarily the same limits; also called Membrane type 1 metalloproteinase; MMP14

MT1-160p = biological target: T1, MT1-160p; assay: atomic force microscopy (single-molecule recognition force spectroscopy); peptide covalently on the AFM tip through NHS-PEG18-aldehyde; MT1-160p immobilised on APTES-treated mica; PBS
[2] = biological target: T2, recombinant human MT1-MMP catalytic …; assay: atomic force microscopy (single-molecule recognition force spectroscopy); peptide covalently on the AFM tip through NHS-PEG18-aldehyde; MT1-MMP immobilised on APTES-treated mica; PBS; 25 °C; control with free excess peptide (1 mmol/L)

| Binder | Ka [1] [M⁻¹] | binding result (MT1-160p) | retraction force (peak position of the histogram) [2] [pN] | dH [1] [kcal/mol] | stoichiometry N [1] |
| --- | --- | --- | --- | --- | --- |
| B1 | 107000 | binds | 150 | – | – |
| B2 | – | binds | 166 | – | – |
| B3 | 175000 | binds | 260 | -0.29 | 1.14 |

— PMC6037669, “Optimization of a MT1-MMP-targeting Peptide and Its Application in Near-infrared Fluorescence Tumor Imaging” (Scientific Reports, 2018)
